Patent US20150344570A1 (published 2015)

Assays:
[1] = target: T1, FcγRIIIa extracellular domain with C-terminal His tag (human, UniProt P08637 17-208); assay: SPR (Biacore), antibody captured on antigen-peptide chip, FcγR as analyte; relative binding amount
T1 construct: extracellular domain; also called FcgRIIIa; 3a; not shown: His tag at the C terminus
Procedure: (§1) The heterodimerized antibodies He Abs in which one of the H chains was introduced with an alteration were assayed for their binding activities to each activating FcγR and inhibitory FcγR according to the method described in Example 4. […] The activating FcγRs in FIGS. 26, 27, 28, and 29 are FcγRIa, FcγRIIa (R), FcγRIIa (H), and FcγRIIIa, respectively.
(§2) Analysis of interaction between objective antibody and the FcγR was carried out using Biacore T100 (GE Healthcare). HBS-EP+ (GE Healthcare) was used as the running buffer, and the measurement temperature was set to 25° C. Chips produced by immobilizing the antigen peptide by the amine coupling method to a Series S Sencor Chip CM5 (GE Healthcare), or alternatively, chips produced by allowing preliminarily biotinylated antigen peptides to interact with and immobilize onto a Series S Sensor Chip SA (certified) (GE Healthcare) were used. Antibodies of interest were captured onto an antigen peptide-immobilized chip, and allowed to interact to each FcγR diluted with running buffer. To regenerate and repeatedly use the chip, the antibodies captured on the chip were washed off by reacting 10 mM glycine-HCl, pH 1.5.

[2] = target: T2, FcγRIIb extracellular domain with C-terminal His tag (human, UniProt P31994 43-217); assay: as above
T2 construct: extracellular domain; Soluble receptor expressed in FreeStyle293 cells and used as analyte in Biacore; also called FcgRIIb; 2b; not shown: His tag at the C terminus
T2 sequence (looked up): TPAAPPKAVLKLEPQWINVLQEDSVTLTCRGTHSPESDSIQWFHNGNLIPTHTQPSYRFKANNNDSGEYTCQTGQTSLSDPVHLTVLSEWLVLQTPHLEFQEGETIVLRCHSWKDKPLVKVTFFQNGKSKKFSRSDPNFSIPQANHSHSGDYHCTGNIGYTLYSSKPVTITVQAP
Procedure: as §1, §2

[3] = target: T1, FcγRIIIa extracellular domain with …; assay: SPR (Biacore); He/Con for FcγRIIIa divided by He/Con for FcγRIIb
Procedure: as §1, §2

T1 sequence (P08637 17-208): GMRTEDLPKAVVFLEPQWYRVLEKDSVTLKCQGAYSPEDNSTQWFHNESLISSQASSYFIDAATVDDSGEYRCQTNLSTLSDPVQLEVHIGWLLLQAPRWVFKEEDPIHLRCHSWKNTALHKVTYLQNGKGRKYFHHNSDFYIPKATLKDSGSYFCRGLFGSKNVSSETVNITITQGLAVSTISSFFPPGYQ

| Binder | He/Con_3a (IIIa binding) [1] | He/Con_2b (IIb binding) [2] | He_3a/2b (IIIa/IIb) [3] [ratio] |
| --- | --- | --- | --- |
| GpH7-A5/GpH7-B3 variant I336_02A/GpL16-k0 (antibody, human IgG1, kappa, Heterodimerized anti-glypican-3 IgG1 (He Ab); The mutation is in the GpH7-B3 chain only; also called He Ab with I336A in GpH7-B3) heavy 1: not shown heavy 2: not shown light: DIVMTQSPLSLPVTPGEPASISCQASESLVHSNRNTYLHWYLQKPGQSPQLLIYKVSNRFSGVPDRFSGSGSGTDFTLKISRVEAEDVGVYYCSQNTHVPPTFGQGTKVEIERTVAAPSVFIFPPSDEQLKSGTASVVCLLNNFYPREAKVQWKVDNALQSGNSQESVTEQDSKDSTYSLSSTLTLSKADYEKHKVYACEVTHQGLSSPVTKSFNRGEC | 111 relative, GpH7-A5/GpH7-B3/GpL16-k0 = 100 | 84.9 relative, GpH7-A5/GpH7-B3/GpL16-k0 = 100 | 1.31 |
| GpH7-A5/GpH7-B3 variant I336_03V/GpL16-k0 (antibody, human IgG1, kappa, Heterodimerized anti-glypican-3 IgG1 (He Ab); The mutation is in the GpH7-B3 chain only; also called He Ab with I336V in GpH7-B3) heavy 1: not shown heavy 2: not shown light: DIVMTQSPLSLPVTPGEPASISCQASESLVHSNRNTYLHWYLQKPGQSPQLLIYKVSNRFSGVPDRFSGSGSGTDFTLKISRVEAEDVGVYYCSQNTHVPPTFGQGTKVEIERTVAAPSVFIFPPSDEQLKSGTASVVCLLNNFYPREAKVQWKVDNALQSGNSQESVTEQDSKDSTYSLSSTLTLSKADYEKHKVYACEVTHQGLSSPVTKSFNRGEC | 112 relative, GpH7-A5/GpH7-B3/GpL16-k0 = 100 | 90.3 relative, GpH7-A5/GpH7-B3/GpL16-k0 = 100 | 1.24 |
| GpH7-A5/GpH7-B3 variant I336_10E/GpL16-k0 (antibody, human IgG1, kappa, Heterodimerized anti-glypican-3 IgG1 (He Ab); The mutation is in the GpH7-B3 chain only; also called He Ab with I336E in GpH7-B3) heavy 1: not shown heavy 2: not shown light: DIVMTQSPLSLPVTPGEPASISCQASESLVHSNRNTYLHWYLQKPGQSPQLLIYKVSNRFSGVPDRFSGSGSGTDFTLKISRVEAEDVGVYYCSQNTHVPPTFGQGTKVEIERTVAAPSVFIFPPSDEQLKSGTASVVCLLNNFYPREAKVQWKVDNALQSGNSQESVTEQDSKDSTYSLSSTLTLSKADYEKHKVYACEVTHQGLSSPVTKSFNRGEC | 119 relative, GpH7-A5/GpH7-B3/GpL16-k0 = 100 | 89.8 relative, GpH7-A5/GpH7-B3/GpL16-k0 = 100 | 1.33 |
| GpH7-A5/GpH7-B3 variant I336_13S/GpL16-k0 (antibody, human IgG1, kappa, Heterodimerized anti-glypican-3 IgG1 (He Ab); The mutation is in the GpH7-B3 chain only; also called He Ab with I336S in GpH7-B3) heavy 1: not shown heavy 2: not shown light: DIVMTQSPLSLPVTPGEPASISCQASESLVHSNRNTYLHWYLQKPGQSPQLLIYKVSNRFSGVPDRFSGSGSGTDFTLKISRVEAEDVGVYYCSQNTHVPPTFGQGTKVEIERTVAAPSVFIFPPSDEQLKSGTASVVCLLNNFYPREAKVQWKVDNALQSGNSQESVTEQDSKDSTYSLSSTLTLSKADYEKHKVYACEVTHQGLSSPVTKSFNRGEC | 102 relative, GpH7-A5/GpH7-B3/GpL16-k0 = 100 | 83.7 relative, GpH7-A5/GpH7-B3/GpL16-k0 = 100 | 1.21 |
| GpH7-A5/GpH7-B3 variant I336_14T/GpL16-k0 (antibody, human IgG1, kappa, Heterodimerized anti-glypican-3 IgG1 (He Ab); The mutation is in the GpH7-B3 chain only; also called He Ab with I336T in GpH7-B3) heavy 1: not shown heavy 2: not shown light: DIVMTQSPLSLPVTPGEPASISCQASESLVHSNRNTYLHWYLQKPGQSPQLLIYKVSNRFSGVPDRFSGSGSGTDFTLKISRVEAEDVGVYYCSQNTHVPPTFGQGTKVEIERTVAAPSVFIFPPSDEQLKSGTASVVCLLNNFYPREAKVQWKVDNALQSGNSQESVTEQDSKDSTYSLSSTLTLSKADYEKHKVYACEVTHQGLSSPVTKSFNRGEC | 108 relative, GpH7-A5/GpH7-B3/GpL16-k0 = 100 | 89.5 relative, GpH7-A5/GpH7-B3/GpL16-k0 = 100 | 1.21 |
| GpH7-A5/GpH7-B3 variant I336_15Y/GpL16-k0 (antibody, human IgG1, kappa, Heterodimerized anti-glypican-3 IgG1 (He Ab); The mutation is in the GpH7-B3 chain only; also called He Ab with I336Y in GpH7-B3) heavy 1: not shown heavy 2: not shown light: DIVMTQSPLSLPVTPGEPASISCQASESLVHSNRNTYLHWYLQKPGQSPQLLIYKVSNRFSGVPDRFSGSGSGTDFTLKISRVEAEDVGVYYCSQNTHVPPTFGQGTKVEIERTVAAPSVFIFPPSDEQLKSGTASVVCLLNNFYPREAKVQWKVDNALQSGNSQESVTEQDSKDSTYSLSSTLTLSKADYEKHKVYACEVTHQGLSSPVTKSFNRGEC | 87.3 relative, GpH7-A5/GpH7-B3/GpL16-k0 = 100 | 68.2 relative, GpH7-A5/GpH7-B3/GpL16-k0 = 100 | 1.28 |
| GpH7-A5/GpH7-B3 variant I336_19Q/GpL16-k0 (antibody, human IgG1, kappa, Heterodimerized anti-glypican-3 IgG1 (He Ab); The mutation is in the GpH7-B3 chain only; also called He Ab with I336Q in GpH7-B3) heavy 1: not shown heavy 2: not shown light: DIVMTQSPLSLPVTPGEPASISCQASESLVHSNRNTYLHWYLQKPGQSPQLLIYKVSNRFSGVPDRFSGSGSGTDFTLKISRVEAEDVGVYYCSQNTHVPPTFGQGTKVEIERTVAAPSVFIFPPSDEQLKSGTASVVCLLNNFYPREAKVQWKVDNALQSGNSQESVTEQDSKDSTYSLSSTLTLSKADYEKHKVYACEVTHQGLSSPVTKSFNRGEC | 92.5 relative, GpH7-A5/GpH7-B3/GpL16-k0 = 100 | 58.2 relative, GpH7-A5/GpH7-B3/GpL16-k0 = 100 | 1.59 |
| GpH7-A5/GpH7-B3 variant K334_10E/GpL16-k0 (antibody, human IgG1, kappa, Heterodimerized anti-glypican-3 IgG1 (He Ab); The mutation is in the GpH7-B3 chain only; also called He Ab with K334E in GpH7-B3) heavy 1: not shown heavy 2: not shown light: DIVMTQSPLSLPVTPGEPASISCQASESLVHSNRNTYLHWYLQKPGQSPQLLIYKVSNRFSGVPDRFSGSGSGTDFTLKISRVEAEDVGVYYCSQNTHVPPTFGQGTKVEIERTVAAPSVFIFPPSDEQLKSGTASVVCLLNNFYPREAKVQWKVDNALQSGNSQESVTEQDSKDSTYSLSSTLTLSKADYEKHKVYACEVTHQGLSSPVTKSFNRGEC | 181 relative, GpH7-A5/GpH7-B3/GpL16-k0 = 100 | 114 relative, GpH7-A5/GpH7-B3/GpL16-k0 = 100 | 1.58 |
